Data reported in the RNAGym collection of RNA variant scans (doi:10.1073/pnas.2313332121).
Variants at the floor of the assay were thinned out.

B1: TPR 5TU (parent)
chain: GGAUCUUCUCGAUCUAACAAAAAAGACAAAUCUGCCACAAAGCUUGAGAGCAUCUUCGGAUGCAGAGGCGGCAGCCUUCGGUGGCGCGAUAGCGCCAACGUUCUCAACUAUGACACGCAAAACGCGUGCUCCGUUGAAUGGAGUUUAUCAUG

Variants of: B1
Test: polymerase ribozyme fitness, log enrichment relative to wild type (log ratio); higher = more active; in vitro selection for triplet polymerase activity
How it was run: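 Each subunit of a heterodimeric triplet polymerase ribozyme was represented by a PCR-built, transcribed mutant library that underwent triplicate single-round in vitro selection with frozen incubation at −7 °C. Extended constructs were recovered by gel excision, streptavidin-bead capture and RT-PCR, and Illumina sequencing of input and output libraries kept genotypes with ≥10 input reads and ≥1 read per output. Fitness is the logarithm of genotype enrichment relative to wild-type enrichment, from inverse-variance-weighted replicate averages, with a logarithm base of 2.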

Variant	polymerase ribozyme fitness (log ratio)
U55G G68C A107C C125A U151G	≤ -4.2
U56A A60C G92U	-1.73
U55G C57U C63G A66U G94C U104G	≤ -4.2
U56A A115G G124C	-1.61
U56A G117A	-0.176
U56A G117C	-0.369
U56A G81C A120C G141A	0.526
U56A U61C	-3.45
U55A U82C	-0.191
U55A U82G	-0.931
U56A G65A G94C A150U	-1.57
U55C C85U G136C	-3.51
U56A G80U G84U U102G G124U	≤ -4.2
U55C G74C	-3.64
U56A G59A C105G A110G A150C	≤ -4.2
U55C C75G C76U G80A C87G C108U	≤ -4.2
U55A U90C C95U U146C C149A	≤ -4.2
U55G C114U	-2.17
U56A C69G U148A	-4.17
U55C U78C G117U U135G U151G	≤ -4.2
U55G A98U U144G	0.317
U55G G86A U134A	-3.62
U56A A60G C125G	-0.563
U55G C85G C132U	-2.9

Variant	polymerase ribozyme fitness (log ratio)
U55G G70A C129G	≤ -4.2
U56A C93U C116U	-1.11
U56A C87A C105G G128C	≤ -4.2
U56C C87U A89G U101G	-2.81
U55A U77C C105A A107U U127G A137C	≤ -4.2
U56A G59A A97U C149U	-1.48
U55G A110G	-2.87
U56A U109C	-3.5
U56A G58A C76U C123U C125G G143A	0.457
U56A C96U U145A G152A	-2
U55G A60G C69U A91G U144A	-2.3
U56A C95U A98C	-0.392
U56A C95U A98U	-1.6
U55G A97G	0.0201
U55C G58U G124A	-0.624
U56G C116G	-0.0028
U55G C87A G141C	-3.74
U55G U56A U82C	-1.09
U56A C96G U139G	-0.96
U55G C99A	-3.24
U56A G70A C85U A97G G133C	≤ -4.2
U56A C57G A66U G84A A98G C103A C125A	≤ -4.2
U55G G83C U135A	-1.97
U56A G92A	-2.28

Variant	polymerase ribozyme fitness (log ratio)
U56A G92C	-1.7
U56G A150C	-3.51
U56C C95A U102A	-1.87
U56A C93A	-2.63
U56A C93U	-2.13
U56A C93G	-3.55
U56A C87U A98U C116G	0.0809
U56A A66C C72U G92A C93U C95A C116A	≤ -4.2
U55G C96A C105U	-0.496
U56A U61A C96U U101A	-1.95
U56C G67U A91C A97U C123A	≤ -4.2
U55G G143A	-0.655
U55G G143C	-2.79
U55G C79U A91C G124C C129A A137U	≤ -4.2
U55C C85A	-1.24
U55C C85G	-1.66
U56A G59C U144G	2.23
U55A U102G	-4.04
U56G C114U	-1.85
U56A A142U	-0.643
U55G U56A G68A C96U	≤ -4.2
U56A G128C	-2.8
U56A U127A A138C A142G	-3.48
U56G G68U G92A C93A A106U A115U A150C	≤ -4.2

Variant	polymerase ribozyme fitness (log ratio)
U56A C93U G141A	-3.72
U56A G58U A97C C99A	-2.52
U56A G94U C95A G143U	-3.39
U56C C87U	-1.06
U56C C132U	-1.47
U56G A60G C99U U102A	-2.07
U55G C85G	-1.66
U55G C85U	-0.188
U55G C85A	-2.4
U56A G70C U78A U82A C131A	≤ -4.2
U55G G62A G92U C96A	-3.44
U56A U102G	-2.4
U56A C69U C129U	-0.94
U56A C99U	-0.614
U56G C103A A122U U146A	-2.78
U56A G84A U127G	-3.06
U55G G92U U139G U146G	-1.4
U56A C57U U61A C75A G88U A120U U139A G143C	≤ -4.2
U56A G67C C93U C103A U130A U148C	≤ -4.2
U56A U78G G92A U144A	≤ -4.2
U56A G62A C76U G81A C87U C95U	-1.49
U56A G58C C85U	-0.365
U56A C57G C87A A119G G126A	≤ -4.2
U56A G58C G92A A106G	-3.51

Variant	polymerase ribozyme fitness (log ratio)
U55A U144C	0.176
U55A U144A	-0.497
U55A U144G	0.364
U55G C79G U145A	≤ -4.2
U55G C87A C118U U130G	≤ -4.2
U56A A110C	-3.84
U55G G83A C103U U135A	-2.23
U56G C85A C95A	-1.74
U56A A113G	-1.32
U56A G88C A142U	≤ -4.2
U56A C85U G128U	-2.89
U56A A91U C125U C132U G140A U148A	≤ -4.2
U56A A150C	-3.35
U55G G133U	-4.16
U56C C108U	-4.01
U55A U101G	-0.568
U56A G92U U102A U134C	-1.59
U55G C57G C95U C96A C118G	-2.53
U56C G81U G92U C108G	≤ -4.2
U56A U90C U144G	-3.91
U56A C57U G86C A98C G141A G152A	-3.31
U56G C63U C93G	-3.47
U56A G88U U104C G124U	≤ -4.2
U55G G83A	-0.31

Variant	polymerase ribozyme fitness (log ratio)
U55G G83U	-0.389
U55G G83C	-0.921
U55G G59C A142C	-3.24
U56G C85G	-2.54
U56C U78G G80A G84C	≤ -4.2
U56A C85G C93G A107U U111G	≤ -4.2
U56A G59A C96U	0.392
U55G G81A U139C	≤ -4.2
U55G C93U U101G	-0.936
U55A U134C	-0.296
U55A U134G	-1.99
U56A U130A A147C	-3.18
U55G A73U A122G G126C	-1.69
U56C G62U C87U	-0.567
U56A G59A A113C G152U	≤ -4.2
U56A C118U C123G U144C	-0.722
U55G U90G A97G U135G	≤ -4.2
U56C C75A G88C C99G	≤ -4.2
U55G G59C G94C U102A U127A U135C	≤ -4.2
U56A A91G C95U C105G A120G	-3.49
U56A C75U G143A	-0.711
U55G G86A U139G	-1.96
U55G G88U A97G U135G U148C	≤ -4.2
U56A U101A	-0.244

Variant	polymerase ribozyme fitness (log ratio)
U56C C76A A122G	-0.262
U56A G152U	-2.37
U56A G152A	-2.52
U56C G68U A121G U148A	≤ -4.2
U56A G88U C114A	≤ -4.2
U55C U109G	-0.246
U55G A107U A122U	-3.21
U56A A73G	-0.236
U55G U82G C85A A97C U104C G136U	-3.65
U55A U78A C85U C93U	≤ -4.2
U56A U134A G143C	-4.04
U56A U82G	0.243
U55G G84A C99A A120G C131U	-2.08
U55G A60U G83C A137U G141U	≤ -4.2
U55G A137C	-3.36
U56A C103A A110G U144G	-3.91
U56A C57G A113C	-1.82
U56A U61A C76G G84A C103G	≤ -4.2
U56A C85U	-0.564
U56A C85A	-2.02
U56A C85G	-2.44
U55C U56A A98U U145A	-1.11
U56G G58C C99G	-2.63
